Results from US20180086841A1 (Merck Sharp & Dohme, published 2018).
Residue numbers refer to the chain shown, from its start.

Assays:
Assay in all cases: flow cytometry on CHO-K1 transfectants;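 note: Anti-hCD27 antibodies tested on transiently transfected CHO-K1 cells bearing hCD27 alanine mutants, 30 min at 4 °C primary incubation, FITC readout excluding debris, dead cells and doublets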
[1] = molecular target: T1, P44A
T1 construct: also called hCD27 P44A
T1 receptor chain: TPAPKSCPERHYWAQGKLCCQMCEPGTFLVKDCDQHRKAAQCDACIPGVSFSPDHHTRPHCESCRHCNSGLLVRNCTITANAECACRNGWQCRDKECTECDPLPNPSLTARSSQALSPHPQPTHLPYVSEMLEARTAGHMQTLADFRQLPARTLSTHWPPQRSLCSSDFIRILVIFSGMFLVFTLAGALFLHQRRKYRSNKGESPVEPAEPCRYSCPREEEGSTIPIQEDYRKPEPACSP
Description: (§1) The hCD27 variants that were tested are listed. Amino acids correspond to the UniProt P26842-1 sequence. Amino acids 1-20 constitute the signal peptide. Binding is expressed as the geometric mean of the FITC signal, relative to antibody binding to hCD27, which was set at 100%.
(§2) The ability of several anti-hCD27 antibodies to bind to a series of hCD27 alanine mutants was determined using CHO-K1 cells, transiently transfected pCI-neo empty vector, pCI-neo.hCD27 and several pCI-neo.CD27Ala mutant constructs.
(§3) Detached cells were transferred to 96 wells round-bottomed well plates at approximately 1.2×10⁵ cells/well. After spinning down the cells, discarding the supernatants and re-suspending the cells in the residual volume, the primary antibodies were added and incubated for 30 minutes at 4° C. Cells were washed three times with DPBS/BSA 1%, followed by centrifugation, discarding of the supernatants and re-suspension in the residual volume. […] After washing once, antibody binding was detected using the HTS plate reader (FACS Canto II) and FlowJo software for data analysis. Debris, dead cells and doublets were excluded from the analysis. Binding was expressed as the geometric mean of the FITC signal, relative to antibody binding to hCD27, which was set at 100%.

[2] = molecular target: T2, D32A
T2 construct: also called hCD27 D32A
T2 receptor chain: T1 receptor chain with D32A, A44P
Description: as §1, §2, §3

[3] = molecular target: T3, Q91A
T3 construct: also called hCD27 Q91A
T3 receptor chain: T1 receptor chain with A44P, Q91A
Description: as §1, §2, §3

[4] = molecular target: T4, V30A
T4 construct: also called hCD27 V30A
T4 receptor chain: T1 receptor chain with V30A, A44P
Description: as §1, §2, §3

[5] = molecular target: T5, R93A
T5 construct: also called hCD27 R93A
T5 receptor chain: T1 receptor chain with A44P, R93A
Description: as §1, §2, §3

[6] = molecular target: T6, E9A
T6 construct: also called hCD27 E9A
T6 receptor chain: T1 receptor chain with E9A, A44P
Description: as §1, §2, §3

[7] = molecular target: T7, W13A
T7 construct: also called hCD27 W13A
T7 receptor chain: T1 receptor chain with W13A, A44P
Description: as §1, §2, §3

[8] = molecular target: T8, K38A
T8 construct: also called hCD27 K38A
T8 receptor chain: T1 receptor chain with K38A, A44P
Description: as §1, §2, §3

[9] = molecular target: T9, R87A
T9 construct: also called hCD27 R87A
T9 receptor chain: T1 receptor chain with A44P, R87A
Description: as §1, §2, §3

[10] = molecular target: T10, G89A
T10 construct: also called hCD27 G89A
T10 receptor chain: T1 receptor chain with A44P, G89A
Description: as §1, §2, §3

B1: hCD27.15-6B (antibody, human IgG4 S228P, kappa, V domains shown)
VH: QVQLVQSGAEVKKPGASVKVSCKASGFIIKATYMHWVRQAPGQRLEWMGRIDPANGETKYDPKFQVRVTITADTSASTAYMELSSLRSEDTAVYYCARYAWYFDVWGQGTLVTVSS
VL: DIQMTQSPSSLSASVGDRVTITCRASENIYSFLAWYQQKPGKAPKLLIYHAKTLAEGVTSRFSGSGSGTDFTLTISSLQPEDSATYYCQHYYGSPLTFGQGTRLEIKR
notes: also called hCD27.15 (humanized 6B); humanized hCD27.15 (human IgG4, Clone 6B)
[1]
  binding, WT hCD27 = 100 (GM FITC): 68.7%
[2]
  binding, WT hCD27 = 100 (GM FITC): 50.6%
[3]
  binding, WT hCD27 = 100 (GM FITC): 136%
[4]
  binding, WT hCD27 = 100 (GM FITC): 82.6%
[5]
  binding, WT hCD27 = 100 (GM FITC): 131%
[6]
  binding, WT hCD27 = 100 (GM FITC): 58.5%
[7]
  binding, WT hCD27 = 100 (GM FITC): 71.4%
[8]
  binding, WT hCD27 = 100 (GM FITC): 97.6%
[9]
  binding, WT hCD27 = 100 (GM FITC): 114%
[10]
  binding, WT hCD27 = 100 (GM FITC): 97.4%
